# B1: library; numbered along this chain (parent)
# chain: MAAAAAAAAEQQSSNGPVKKSMREKAVERRSVNKEHNSNFKAGYIPIDEDRLHKTGLRGRKGNLAICVIILLFILAVINLIITLVIWAVIRIGPNGCDSMEFHESGLLRFKQVSDMGVIHPLYKSTVGGRRNENLVITGNNQPIVFQQGTTKLSVENNKTSITSDIGMQFFDPRTQNILFSTDYETHEFHLPSGVKSLNVQKASTERITSNATSDLNIKVDGRAIVRGNEGVFIMGKTIEFHMGGNMELKAENSIILNGSVMVSTTRLPSSSSGDQLGSGDWVRYKLCMCADGTLFKVQVTSQNMGCQISDNPCGNTH
# Variants of: B1
# Assay: SGCB cell-surface expression functional score (HA stain, bin4 vs bin1, normalised to synonymous) (log10 ratio); higher = more cell-surface SGCB (functional)
# In short: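 Sorting and sequencing yield the functional score, defined as the log ratio of a variant's highest-bin frequency to its lowest-bin frequency, with the median taken over codons and replicate transductions. The libraries, codon-saturation sets of HA-tagged, YFP-fused human beta-sarcoglycan, went into HEK293 cells stably carrying alpha-, gamma- and delta-sarcoglycan by duplicate lentiviral transduction at MOI <0.1. Cells were stained on ice with Alexa Fluor 647 anti-HA, fixed and split into four 5% intensity bins, and synonymous variants were scaled per section to mean 0, SD 0.5.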
row,Variant,SGCB cell-surface expression functional score (log10)
1,MAAAAAAAAEQQSSNGPVKKSMREKAVERRSVNKEHNSNFKAGYIPIDEDRLHKTGLRGRKGNLAICVIILLFILAVINLIITLVIWAVIRIGPNGCDSMEFHESGLLRFKQVSDMGVIHPLYKSTVGGRRNENLVITGNNQPIVFQQGTTKLSVENNKTSITSDIGMQFFDPRTQNILFSTDYETHEFHLPSGVKSLNVQKASTERITSNATSDLNIKVDGRAIVRGNEGVFIMGKTIEFHMGGNMELKAENSIILNGSVMVSTTRLPSSSSGDQIGSGDWVRYKLCMCADGTLFKVQVTSQNMGCQISDNPCGNTH [L277I],0.41
2,MAAAAAAAAEQPSSNGPVKKSMREKAVERRSVNKEHNSNFKAGYIPIDEDRLHKTGLRGRKGNLAICVIILLFILAVINLIITLVIWAVIRIGPNGCDSMEFHESGLLRFKQVSDMGVIHPLYKSTVGGRRNENLVITGNNQPIVFQQGTTKLSVENNKTSITSDIGMQFFDPRTQNILFSTDYETHEFHLPSGVKSLNVQKASTERITSNATSDLNIKVDGRAIVRGNEGVFIMGKTIEFHMGGNMELKAENSIILNGSVMVSTTRLPSSSSGDQLGSGDWVRYKLCMCADGTLFKVQVTSQNMGCQISDNPCGNTH [Q12P],0.06
3,MAAAAAAAAEQQSSNGPVKKSMREKAVERRSVNKEHNSNFKAGYIPIDEDRLHKTPLRGRKGNLAICVIILLFILAVINLIITLVIWAVIRIGPNGCDSMEFHESGLLRFKQVSDMGVIHPLYKSTVGGRRNENLVITGNNQPIVFQQGTTKLSVENNKTSITSDIGMQFFDPRTQNILFSTDYETHEFHLPSGVKSLNVQKASTERITSNATSDLNIKVDGRAIVRGNEGVFIMGKTIEFHMGGNMELKAENSIILNGSVMVSTTRLPSSSSGDQLGSGDWVRYKLCMCADGTLFKVQVTSQNMGCQISDNPCGNTH [G56P],0.22
4,MAAAAAAAAEQQSSNGPVKKSMREKAVERRSVNKEHNSNFKAGYIPIDEDRLHKTGLRGRKGNLAICVIILLFILAVINLIITLVIWAVIRIGPNGCDSMEFHESGLLRFKQVSDMGVIHPLYKSTVGGRRNENLVITGNNQPIVFQQGTTKLSVENNKTSITSDIGMQFFDPRTQNIFFSTDYETHEFHLPSGVKSLNVQKASTERITSNATSDLNIKVDGRAIVRGNEGVFIMGKTIEFHMGGNMELKAENSIILNGSVMVSTTRLPSSSSGDQLGSGDWVRYKLCMCADGTLFKVQVTSQNMGCQISDNPCGNTH [L179F],0.08
5,MAAAAAAAAEQQSSNGPVKKSMREKAVERRSVNKEHNSNFKAGYIPIDEDRLHKTGLRGRKGNLAICVIILLFILAVWNLIITLVIWAVIRIGPNGCDSMEFHESGLLRFKQVSDMGVIHPLYKSTVGGRRNENLVITGNNQPIVFQQGTTKLSVENNKTSITSDIGMQFFDPRTQNILFSTDYETHEFHLPSGVKSLNVQKASTERITSNATSDLNIKVDGRAIVRGNEGVFIMGKTIEFHMGGNMELKAENSIILNGSVMVSTTRLPSSSSGDQLGSGDWVRYKLCMCADGTLFKVQVTSQNMGCQISDNPCGNTH [I78W],0.33
6,MAAAAAAAAEQQSSNGPVKKSMREKAVERRSVNKEHNSNFKAGYIPIDEDRLHKTGLRGRKGNLAICVIILLFILAVINLIITLVIWAVIRIGPNGCDSMEFHESGLLRFKQVSDMGVIHPLYKSTVGGRRNENLVITGNNQPIVFQQGTTKLSVENNKTSITSDIGMQFFDPRTQNILFSTDYETHEFHLPSGVKSLNVQKASTERITSNATSDLNIKVDGRAIVRGNEGVFIMGKTIEFHMGGNMELKAENSIILNGSVMVSTTRLPSSSSGDQLGSGDWVRYKLCMCIDGTLFKVQVTSQNMGCQISDNPCGNTH [A291I],-0.64
7,MAAAAAAAAEQQSSNGPVKKSMREKAVERRSVTKEHNSNFKAGYIPIDEDRLHKTGLRGRKGNLAICVIILLFILAVINLIITLVIWAVIRIGPNGCDSMEFHESGLLRFKQVSDMGVIHPLYKSTVGGRRNENLVITGNNQPIVFQQGTTKLSVENNKTSITSDIGMQFFDPRTQNILFSTDYETHEFHLPSGVKSLNVQKASTERITSNATSDLNIKVDGRAIVRGNEGVFIMGKTIEFHMGGNMELKAENSIILNGSVMVSTTRLPSSSSGDQLGSGDWVRYKLCMCADGTLFKVQVTSQNMGCQISDNPCGNTH [N33T],-0.07
8,MAAAAAAAAEQQSSNGPVKKSMREKAVERRSVNKEHNSNFKAGYIPIDEDRLHKTGLRGRKGNLAICVIILLFILAVINLIITLVIWAVIRIGPNGCDSMEFHESGLLRFKQVSDMGVIHPLYKSTVGGRRNENLVITGNNQPIVFQQGTTKLSVENNKTSITSDIGMQFFDPRTQNILFSTDYETHEFHLPSGVKSLNVQKASTERITSNATSDLNIKVDGRAIVRGNEGVFIMGKTIEFHMGGNMELKAENSIILNGSVMVSTPRLPSSSSGDQLGSGDWVRYKLCMCADGTLFKVQVTSQNMGCQISDNPCGNTH [T266P],0.54
9,MAAAAAAAAEQQSSNGPVKKSMREKAVERRSVNKEHNSNFKAGYIPIDEDRLHKTGLRGRKGNLAICVIILLFILAVINLIITLVDWAVIRIGPNGCDSMEFHESGLLRFKQVSDMGVIHPLYKSTVGGRRNENLVITGNNQPIVFQQGTTKLSVENNKTSITSDIGMQFFDPRTQNILFSTDYETHEFHLPSGVKSLNVQKASTERITSNATSDLNIKVDGRAIVRGNEGVFIMGKTIEFHMGGNMELKAENSIILNGSVMVSTTRLPSSSSGDQLGSGDWVRYKLCMCADGTLFKVQVTSQNMGCQISDNPCGNTH [I86D],-0.79
10,MAAAAAAAAEQQSSNGPVKKSMREKAVERRSVNKEHNSNFKAGYIPIDEDRLHKTGLRGRKGNLAICVIILLFILAVINLIITLVIWAVIRIGPNGCDSMEFHESGLLRFKQVSDMGVIHPLYKSTVGGRRNENLVITGNNQPIVIQQGTTKLSVENNKTSITSDIGMQFFDPRTQNILFSTDYETHEFHLPSGVKSLNVQKASTERITSNATSDLNIKVDGRAIVRGNEGVFIMGKTIEFHMGGNMELKAENSIILNGSVMVSTTRLPSSSSGDQLGSGDWVRYKLCMCADGTLFKVQVTSQNMGCQISDNPCGNTH [F146I],0.28
